In patent US20140223597A1, “Mutated Hydroxyphenylpyruvate Dioxygenase, DNA Sequence and Isolation of Plants Which Are Tolerant To HPPD Inhibitor Herbicides” (Bayer CropScience AG, priority 2008, published 2014):

Assays:
[1] = tested on: Arabidopsis thaliana HPPD; experiment: Assay for HPPD activity (4-HPP consumption, DNP photometric readout at 405 nm) in presence and absence of Tembotrione; type: biochemical; conditions: uninhibited enzyme activity set to 100%, 444 nM HPPD, 500 μM 4-HPP, 1 h room temperature
Experimental: (§1) HPPD produces homogentisate and CO2 from 4-HPP and O2. The enzyme is incubated with its substrate 4-HPP in the presence or absence of an inhibitor. L-ascorbic acid is present as a reductant to retain the active site iron in the ferrous form and Catalase is present to degrade toxic H2O2. After an incubation time of one hour, the reaction is stopped by addition of 2,4-Dinitrophenylhydrazine (DNP). DNP forms a hydrazone derivative with the remaining 4-HPP molecules in the assay mixture which appears in an amber-brown colour at an alkaline pH. The amount of unconsumed 4-HPP is measured photometrically at 405 nm.
(§2) For preparation of inhibitor stock solutions, Tembotrione (MW=440.82) and DKN (Mw=359.3) are dissolved in DMSO to a concentration of 10 mM. […] Further dilutions are made with ddH2O to obtain the inhibitor solutions used in the assay (5 μM, 10 μM and 20 μM). […] A 2% DMSO solution provides for half of the assay mixture in uninhibited reactions to normalize a possible inhibiting effect of DMSO.
(§3) The assay is designed for a HPPD concentration of 444 nM on a monomeric basis and a 4-HPP concentration of 500 μM. This corresponds to 44.4 pmol HPPD and 50 nmol 4-HPP in a 100 μL-assay mixture, resulting in an approximate 1000-fold excess of substrate in relation to the enzyme. The calculated theoretical molecular weight of an AtHPPD subunit is 49.515 kD which results in 2.2 μg HPPD per assay mixture. The calculated theoretical molecular weight of a PfHPPD subunit is 41.205 kD, resulting in 1.8 μg HPPD per assay mixture. The enzyme solution provides for one quarter of the assay mixture volume, so enzyme stock solutions are produced by diluting AtHPPD solutions to 88 μg*mL^−1 with 50 mM TRIS buffer; PfHPPD solutions are diluted to 72 μg*mL^−1.
(§4) The inhibitor concentrations (2.5 μM, 5 μM and 10 μM) provide for 5-fold, 10-fold and 20-fold excess of inhibitor compared to the amount of enzyme. A buffer/substrate solution is prepared which provides for one quarter of the assay mixture. 2.5 mL of buffer/substrate solution contain 1 mL 1 M TRIS buffer, 500 μL 10 mM 4-HPP solution, 500 μL 200 mM L-ascorbic acid solution, 13 μL Catalase solution and 487 μL ddH2O. The assay is carried out in Greiner F-bottom 96 well microplates and all reactions are carried out as triplicates. The controls are carried out sixfold per plate and contain either 25 μL 50 mM TRIS instead of HPPD solution (corresponding to 0% consumption of 4-HPP) or a buffer/substrate solution that contains 500 μL 1 M TRIS instead of 500 μL 10 mM 4-HPP (corresponding to 100% consumption of HPP). The reaction is started by addition of 25 μL HPPD solution to a mixture of 50 μL of the respective inhibitor solution or 50 μL 2% DMSO and 25 μL buffer/substrate solution. The reaction is allowed to proceed for 1 h at room temperature. The reaction is stopped and coloration of 4-HPP is induced by addition of 50 μL 0.04% DNP/3.8 N HCl solution. After 15 min, addition of 100 μL 5 N KOH leads to the colour shift of the hydrazone derivative. Photometric measurement with a BMG FLUOstar Galaxy microplate reader is carried out immediately at 405 nm and data obtained is used for analysis of HPPD activities in presence and absence of an inhibitor.

[2] = tested on: Pseudomonas fluorescens HPPD; experiment: as above; type: biochemical; conditions: uninhibited enzyme activity set to 100%, 444 nM HPPD, 500 μM 4-HPP, 1 h room temperature
Experimental: as §1, §2, §3, §4

Molecule	Relative activity (in percentage) of At HPPD mutants in presence of Tembotrione ([1]; 5 μM Tembotrione)	Relative activity (in percentage) of At HPPD mutants in presence of Tembotrione ([1]; 10 μM Tembotrione)	Relative activity (in percentage) of At HPPD mutants in presence of Tembotrione ([1]; […] Tembotrione)	Relative activity (in percentage) of Pf HPPD mutants in presence of Tembotrione ([2]; 5 μM Tembotrione)	Relative activity (in percentage) of Pf HPPD mutants in presence of Tembotrione ([2]; 10 μM Tembotrione)	Relative activity (in percentage) of Pf HPPD mutants in presence of Tembotrione ([2]; […] Tembotrione)
Asp (protein, UniProt P93836 1-445, looked up, variant G422D) 4-hydroxyphenylpyruvate …: MGHQNAAVSENQNHDDGAASSPGFKLVGFSKFVRKNPKSDKFKVKRFHHIEFWCGDATNVARRFSWGLGMRFSAKSDLSTGNMVHASYLLTSGDLRFLFTAPYSPSLSAGEIKPTTTASIPSFDHGSCRSFFSSHGLGVRAVAIEVEDAESAFSISVANGAIPSSPPIVLNEAVTIAEVKLYGDVVLRYVSYKAEDTEKSEFLPGFERVEDASSFPLDYGIRRLDHAVGNVPELGPALTYVAGFTGFHQFAEFTADDVGTAESGLNSAVLASNDEMVLLPINEPVHGTKRKSQIQTYLEHNEGAGLQHLALMSEDIFRTLREMRKRSSIGGFDFMPSPPPTYYQNLKKRVGDVLSDDQIKECEELGILVDRDDQGTLLQIFTKPLGDRPTIFIEIIQRVGCMMKDEEGKAYQSGGCGGFGKDNFSELFKSIEEYEKTLEAKQLVG	7%	10%	20%	9%	0%	18%
His (protein, UniProt P93836 1-445, looked up, variant G422H) 4-hydroxyphenylpyruvate …: MGHQNAAVSENQNHDDGAASSPGFKLVGFSKFVRKNPKSDKFKVKRFHHIEFWCGDATNVARRFSWGLGMRFSAKSDLSTGNMVHASYLLTSGDLRFLFTAPYSPSLSAGEIKPTTTASIPSFDHGSCRSFFSSHGLGVRAVAIEVEDAESAFSISVANGAIPSSPPIVLNEAVTIAEVKLYGDVVLRYVSYKAEDTEKSEFLPGFERVEDASSFPLDYGIRRLDHAVGNVPELGPALTYVAGFTGFHQFAEFTADDVGTAESGLNSAVLASNDEMVLLPINEPVHGTKRKSQIQTYLEHNEGAGLQHLALMSEDIFRTLREMRKRSSIGGFDFMPSPPPTYYQNLKKRVGDVLSDDQIKECEELGILVDRDDQGTLLQIFTKPLGDRPTIFIEIIQRVGCMMKDEEGKAYQSGGCGGFGKHNFSELFKSIEEYEKTLEAKQLVG	31%	40%	50%	13%	11%	26%
Met (protein, UniProt P93836 1-445, looked up, variant G422M) 4-hydroxyphenylpyruvate …: MGHQNAAVSENQNHDDGAASSPGFKLVGFSKFVRKNPKSDKFKVKRFHHIEFWCGDATNVARRFSWGLGMRFSAKSDLSTGNMVHASYLLTSGDLRFLFTAPYSPSLSAGEIKPTTTASIPSFDHGSCRSFFSSHGLGVRAVAIEVEDAESAFSISVANGAIPSSPPIVLNEAVTIAEVKLYGDVVLRYVSYKAEDTEKSEFLPGFERVEDASSFPLDYGIRRLDHAVGNVPELGPALTYVAGFTGFHQFAEFTADDVGTAESGLNSAVLASNDEMVLLPINEPVHGTKRKSQIQTYLEHNEGAGLQHLALMSEDIFRTLREMRKRSSIGGFDFMPSPPPTYYQNLKKRVGDVLSDDQIKECEELGILVDRDDQGTLLQIFTKPLGDRPTIFIEIIQRVGCMMKDEEGKAYQSGGCGGFGKMNFSELFKSIEEYEKTLEAKQLVG	13%	12%	18%	7%	10%	16%
Phe (protein, UniProt P93836 1-445, looked up, variant G422F) 4-hydroxyphenylpyruvate …: MGHQNAAVSENQNHDDGAASSPGFKLVGFSKFVRKNPKSDKFKVKRFHHIEFWCGDATNVARRFSWGLGMRFSAKSDLSTGNMVHASYLLTSGDLRFLFTAPYSPSLSAGEIKPTTTASIPSFDHGSCRSFFSSHGLGVRAVAIEVEDAESAFSISVANGAIPSSPPIVLNEAVTIAEVKLYGDVVLRYVSYKAEDTEKSEFLPGFERVEDASSFPLDYGIRRLDHAVGNVPELGPALTYVAGFTGFHQFAEFTADDVGTAESGLNSAVLASNDEMVLLPINEPVHGTKRKSQIQTYLEHNEGAGLQHLALMSEDIFRTLREMRKRSSIGGFDFMPSPPPTYYQNLKKRVGDVLSDDQIKECEELGILVDRDDQGTLLQIFTKPLGDRPTIFIEIIQRVGCMMKDEEGKAYQSGGCGGFGKFNFSELFKSIEEYEKTLEAKQLVG	16%	11%	30%	12%	3%	33%
Leu (protein, UniProt P93836 1-445, looked up, variant G422L) 4-hydroxyphenylpyruvate …: MGHQNAAVSENQNHDDGAASSPGFKLVGFSKFVRKNPKSDKFKVKRFHHIEFWCGDATNVARRFSWGLGMRFSAKSDLSTGNMVHASYLLTSGDLRFLFTAPYSPSLSAGEIKPTTTASIPSFDHGSCRSFFSSHGLGVRAVAIEVEDAESAFSISVANGAIPSSPPIVLNEAVTIAEVKLYGDVVLRYVSYKAEDTEKSEFLPGFERVEDASSFPLDYGIRRLDHAVGNVPELGPALTYVAGFTGFHQFAEFTADDVGTAESGLNSAVLASNDEMVLLPINEPVHGTKRKSQIQTYLEHNEGAGLQHLALMSEDIFRTLREMRKRSSIGGFDFMPSPPPTYYQNLKKRVGDVLSDDQIKECEELGILVDRDDQGTLLQIFTKPLGDRPTIFIEIIQRVGCMMKDEEGKAYQSGGCGGFGKLNFSELFKSIEEYEKTLEAKQLVG	23%	14%	31%	0%	0%	4%
Val (protein, UniProt P93836 1-445, looked up, variant G422V) 4-hydroxyphenylpyruvate …: MGHQNAAVSENQNHDDGAASSPGFKLVGFSKFVRKNPKSDKFKVKRFHHIEFWCGDATNVARRFSWGLGMRFSAKSDLSTGNMVHASYLLTSGDLRFLFTAPYSPSLSAGEIKPTTTASIPSFDHGSCRSFFSSHGLGVRAVAIEVEDAESAFSISVANGAIPSSPPIVLNEAVTIAEVKLYGDVVLRYVSYKAEDTEKSEFLPGFERVEDASSFPLDYGIRRLDHAVGNVPELGPALTYVAGFTGFHQFAEFTADDVGTAESGLNSAVLASNDEMVLLPINEPVHGTKRKSQIQTYLEHNEGAGLQHLALMSEDIFRTLREMRKRSSIGGFDFMPSPPPTYYQNLKKRVGDVLSDDQIKECEELGILVDRDDQGTLLQIFTKPLGDRPTIFIEIIQRVGCMMKDEEGKAYQSGGCGGFGKVNFSELFKSIEEYEKTLEAKQLVG	22%	14%	43%	–	–	–
